The target in one assay is T1, 4H1384-AA.
T1 chain: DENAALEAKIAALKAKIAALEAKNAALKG
In words: two-hybrid library CCmax.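 Note: natural log of median RNA to DNA barcode read ratio; higher means stronger binding.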

The next assay has as its target T2, 4H1449-AA.
T2 chain: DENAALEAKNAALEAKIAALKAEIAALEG
The experiment in a line: two-hybrid library CCmax.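 Note: natural log of median RNA to DNA barcode read ratio; higher means stronger binding.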 To be noted: mean of both orientations.

The next assay concerns the target T3, 4H1593-AA.
T3 chain: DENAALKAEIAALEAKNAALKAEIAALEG
The experiment in a line: two-hybrid library CCmax.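 Note: natural log of median RNA to DNA barcode read ratio; higher means stronger binding.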 To be noted: mean of both orientations.

In another assay the target is T4, 4H1878-AA.
T4 chain: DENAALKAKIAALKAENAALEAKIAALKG
The experiment in a line: two-hybrid library CCmax.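 Note: natural log of median RNA to DNA barcode read ratio; higher means stronger binding.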 To be noted: mean of both orientations.

The target in a further assay is T5, 4H235-AA.
T5 chain: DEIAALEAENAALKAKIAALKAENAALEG
In words: two-hybrid library CCmax.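 Note: natural log of median RNA to DNA barcode read ratio; higher means stronger binding.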 The following applies: mean of both orientations.

The next assay has as its target T6, 4H249-AA.
T6 chain: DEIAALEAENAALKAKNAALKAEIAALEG
The experiment in a line: two-hybrid library CCmax.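 Note: natural log of median RNA to DNA barcode read ratio; higher means stronger binding.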

The target in a further assay is T7, 4H2580-AA.
T7 chain: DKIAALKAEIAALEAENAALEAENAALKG
In words: two-hybrid library CCmax. To be noted: mean of both orientations.

The next assay has as its target T8, 4H2604-AA.
T8 chain: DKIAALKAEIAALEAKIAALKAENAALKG
In words: two-hybrid library CCmax. To be noted: mean of both orientations.

A further assay concerns the target T9, 4H2621-AA.
T9 chain: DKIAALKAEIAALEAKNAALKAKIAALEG
The experiment in a line: two-hybrid library CCmax. The following applies: mean of both orientations.

A further assay has as its target T10, 4H2760-AA.
T10 chain: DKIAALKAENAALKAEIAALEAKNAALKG
In words: two-hybrid library CCmax. To be noted: mean of both orientations.

A further assay addresses T11, 4H2774-AA.
T11 chain: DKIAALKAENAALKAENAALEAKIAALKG
The experiment in a line: two-hybrid library CCmax. The following applies: mean of both orientations.

In the next assay the target is T12, 4H2903-AA.
T12 chain: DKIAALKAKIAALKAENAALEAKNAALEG
The experiment in a line: two-hybrid library CCmax. The following applies: mean of both orientations.

A further assay deals with T13, 4H2947-AA.
T13 chain: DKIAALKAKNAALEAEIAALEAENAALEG
The experiment in a line: two-hybrid library CCmax. The following applies: mean of both orientations.

For the next assay, the target named is T14, 4H2961-AA.
T14 chain: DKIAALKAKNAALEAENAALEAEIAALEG
The experiment in a line: two-hybrid library CCmax. To be noted: mean of both orientations.

Another assay deals with T15, 4H3049-AA.
T15 chain: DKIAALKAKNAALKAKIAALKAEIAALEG
The experiment in a line: two-hybrid library CCmax. To be noted: mean of both orientations.

In the next assay the target is T16, 4H3094-AA.
T16 chain: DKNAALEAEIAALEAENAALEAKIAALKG
The experiment in a line: two-hybrid library CCmax. The following applies: mean of both orientations.

The next assay deals with T17, 4H324-AA.
T17 chain: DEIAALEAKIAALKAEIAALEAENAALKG
The experiment in a line: two-hybrid library CCmax. To be noted: mean of both orientations.

The target in a further assay is T18, 4H341-AA.
T18 chain: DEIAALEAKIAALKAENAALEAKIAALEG
In words: two-hybrid library CCmax. To be noted: mean of both orientations.

Another assay addresses T19, 4H3449-AA.
T19 chain: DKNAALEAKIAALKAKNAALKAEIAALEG
The experiment in a line: two-hybrid library CCmax. The following applies: mean of both orientations.

For a further assay, the target named is T20, 4H3619-AA.
T20 chain: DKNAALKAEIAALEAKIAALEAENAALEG
The experiment in a line: two-hybrid library CCmax. To be noted: mean of both orientations.

The next assay concerns the target T21, 4H3629-AA.
T21 chain: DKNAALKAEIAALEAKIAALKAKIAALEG
In words: two-hybrid library CCmax. To be noted: mean of both orientations.

Another assay deals with T22, 4H3777-AA.
T22 chain: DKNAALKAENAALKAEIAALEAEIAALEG
The experiment in a line: two-hybrid library CCmax. To be noted: mean of both orientations.

In the next assay the target is T23, 4H380-AA.
T23 chain: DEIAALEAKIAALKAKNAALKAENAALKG
In words: two-hybrid library CCmax. To be noted: mean of both orientations.

The target of a further assay is T24, 4H3915-AA.
T24 chain: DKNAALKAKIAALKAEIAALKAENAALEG
The experiment in a line: two-hybrid library CCmax. The following applies: mean of both orientations.

The next assay concerns the target T25, 4H3974-AA.
T25 chain: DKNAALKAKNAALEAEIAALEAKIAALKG
The experiment in a line: two-hybrid library CCmax. The following applies: mean of both orientations.

The target in another assay is T26, 4H432-AA.
T26 chain: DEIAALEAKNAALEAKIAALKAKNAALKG
The experiment in a line: two-hybrid library CCmax. The following applies: mean of both orientations.

The target in another assay is T27, 4H446-AA.
T27 chain: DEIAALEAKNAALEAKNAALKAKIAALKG
In words: two-hybrid library CCmax. To be noted: mean of both orientations.

The next assay addresses T28, 4H63-AA.
T28 chain: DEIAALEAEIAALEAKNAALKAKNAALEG
In words: two-hybrid library CCmax. To be noted: mean of both orientations.

Another assay has as its target T29, 4H1449-bN.
T29 chain: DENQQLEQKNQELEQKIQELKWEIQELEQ
The experiment in a line: two-hybrid library CCNG1.

The target of another assay is T30, 4H1544-bN.
T30 chain: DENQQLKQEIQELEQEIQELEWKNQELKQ
In words: two-hybrid library CCNG1.

Another assay has as its target T31, 4H1629-bN.
T31 chain: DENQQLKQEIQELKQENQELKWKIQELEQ
The experiment in a line: two-hybrid library CCNG1.

For a further assay, the target named is T32, 4H1710-bN.
T32 chain: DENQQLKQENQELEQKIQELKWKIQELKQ
The experiment in a line: two-hybrid library CCNG1.

The next assay has as its target T33, 4H1804-bN.
T33 chain: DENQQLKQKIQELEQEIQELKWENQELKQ
The experiment in a line: two-hybrid library CCNG1.

In a further assay the target is T34, 4H1899-bN.
T34 chain: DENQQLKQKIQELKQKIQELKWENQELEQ
The experiment in a line: two-hybrid library CCNG1.

In a further assay the target is T35, 4H1985-bN.
T35 chain: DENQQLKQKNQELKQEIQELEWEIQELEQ
In words: two-hybrid library CCNG1.

The target of another assay is T36, 4H3129-bN.
T36 chain: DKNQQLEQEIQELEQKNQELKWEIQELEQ
The experiment in a line: two-hybrid library CCNG1.

Another assay addresses T37, 4H3172-bN.
T37 chain: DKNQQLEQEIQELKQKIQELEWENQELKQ
The experiment in a line: two-hybrid library CCNG1.

The target of a further assay is T38, 4H3414-bN.
T38 chain: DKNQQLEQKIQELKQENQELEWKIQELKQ
The experiment in a line: two-hybrid library CCNG1.

The target in a further assay is T39, 4H3613-bN.
T39 chain: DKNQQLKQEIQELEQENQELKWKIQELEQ
The experiment in a line: two-hybrid library CCNG1.

The next assay addresses T40, 4H3628-bN.
T40 chain: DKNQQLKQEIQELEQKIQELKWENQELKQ
The experiment in a line: two-hybrid library CCNG1.

In a further assay the target is T41, 4H3631-bN.
T41 chain: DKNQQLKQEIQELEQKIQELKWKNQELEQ
The experiment in a line: two-hybrid library CCNG1.

The next assay has as its target T42, 4H3638-bN.
T42 chain: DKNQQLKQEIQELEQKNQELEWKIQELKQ
The experiment in a line: two-hybrid library CCNG1.

A further assay concerns the target T43, 4H3817-bN.
T43 chain: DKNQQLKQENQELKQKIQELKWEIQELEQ
The experiment in a line: two-hybrid library CCNG1.

A further assay has as its target T44, 4H3858-bN.
T44 chain: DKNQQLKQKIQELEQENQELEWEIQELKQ
In words: two-hybrid library CCNG1.

In a further assay the target is T45, 4H3974-bN.
T45 chain: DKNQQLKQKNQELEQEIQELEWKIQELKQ
The experiment in a line: two-hybrid library CCNG1.

Another assay concerns the target T46, 4H570-bN.
T46 chain: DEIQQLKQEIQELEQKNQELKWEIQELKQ
In words: two-hybrid library CCNG1.

The next assay addresses T47, 4H584-bN.
T47 chain: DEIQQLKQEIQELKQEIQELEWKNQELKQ
In words: two-hybrid library CCNG1.

Another assay has as its target T48, 4H619-bN.
T48 chain: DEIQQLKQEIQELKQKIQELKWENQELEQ
The experiment in a line: two-hybrid library CCNG1.

The target in a further assay is T49, 4H850-bN.
T49 chain: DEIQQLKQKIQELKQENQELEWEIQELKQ
The experiment in a line: two-hybrid library CCNG1.

For a further assay, the target named is T50, 4H906-bN.
T50 chain: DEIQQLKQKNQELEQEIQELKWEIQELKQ
In words: two-hybrid library CCNG1.

Another assay deals with T51, 4H3592-bN.
T51 chain: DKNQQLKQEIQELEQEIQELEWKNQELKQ
The experiment in a line: two-hybrid library CCNG1.

A further assay concerns the target T52, 4H3601-bN.
T52 chain: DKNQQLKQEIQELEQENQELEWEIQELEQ
The experiment in a line: two-hybrid library CCNG1.

In another assay the target is T53, 4H3907-bN.
T53 chain: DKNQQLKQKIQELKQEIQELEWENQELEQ
In words: two-hybrid library CCNG1.

For another assay, the target named is T54, 4H4038-bN.
T54 chain: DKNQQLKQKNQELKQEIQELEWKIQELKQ
The experiment in a line: two-hybrid library CCNG1.

Regarding DENAALEAKIAALKAKIAALEAKNAALKG [4H1384-AA], the interaction score was 0.25 with 4H1384-AA; -1.1 in the assay with 4H1449-AA; -1.48 in the assay with 4H1593-AA; -1.08 with 4H1878-AA; -1.3 with 4H235-AA; -1.81 with 4H249-AA. Besides, the interaction score with 4H2580-AA was 0.35; with 4H2604-AA, 1.45; in the assay with 4H2621-AA it was -0.862; with 4H2760-AA it was -1.74; with 4H2774-AA, -1.81; with 4H2903-AA, -0.437. The interaction score with 4H2947-AA was -1.05; in the assay with 4H2961-AA it was -1.37; with 4H3049-AA, -0.361; with 4H3094-AA, -0.731; in the assay with 4H324-AA, 0.82; in the assay with 4H341-AA it was -0.177. For the same molecule, the interaction score in the assay with 4H3449-AA is -1.82; with 4H3619-AA, 2.13; with 4H3629-AA it was 0.973; with 4H3777-AA, 0.578; in the assay with 4H380-AA, -1.4; with 4H3915-AA it was -0.264. The interaction score with 4H3974-AA is 0.121; with 4H432-AA, -1.33; with 4H446-AA, -2.33; in the assay with 4H63-AA, -0.475.

On to DENQQLEQKNQELEQKIQELKWEIQELEQ [4H1449-bN], for which the interaction score with 4H1449-bN was -0.847; with 4H1544-bN, -1.72; with 4H1629-bN, -0.745; with 4H1710-bN it was -0.246; with 4H1804-bN, -2.5; in the assay with 4H1899-bN, -0.773. For the same molecule, the interaction score is -1.29 with 4H1985-bN; -2.48 with 4H3129-bN; -0.588 with 4H3172-bN; -0.742 with 4H3414-bN; -1.42 in the assay with 4H3613-bN; -0.461 with 4H3628-bN. Moreover, the interaction score with 4H3631-bN was -0.391; with 4H3638-bN it was -1.08; with 4H3817-bN it was -1.76; with 4H3858-bN, -0.776; with 4H3974-bN, 1.15; with 4H570-bN it was -0.581. The interaction score with 4H584-bN was -0.471; with 4H619-bN it was -0.984; with 4H850-bN, -1.83; with 4H906-bN, -1.69.

For DKNQQLKQEIQELEQEIQELEWKNQELKQ [4H3592-bN], the interaction score in the assay with 4H3592-bN is -0.397; with 4H3601-bN, -0.0551; with 4H3907-bN, -1.47; with 4H4038-bN, -0.372.

These data come from paper PMC10397247.
